According to the supplement of paper PMC10126150:
± gives the standard deviation of the averaged measurements.

System: ATP
Test: switch fluorescence ratio, 500 uM ATP over buffer (Cy3 cluster intensity, sum of 5 cycles each) (fold (ratio)); higher = stronger signal-on switching upon ATP binding; sequences stand for … in TCGTCGGCAGCGTCAGATGTGTATAAGAGACAGTTTTTTTTTTTTTTTTTTTTTTTTT…TC
Conditions: aptamer strand: ATP DNA aptamer (quencher-CACCTGGGGGAGTATTGCGGAGGAAGG + anchor), 100 nM annealed; ATP concentration: 500 uM
Method in brief: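 Five buffer/ATP imaging cycles were run on Cy3-labelled switching-strand clusters on a modified Illumina MiSeq flow-cell, with NaOH stripping and re-annealing between cycles. In each cycle, clusters annealed to 100 nM quencher-labelled ATP aptamer were imaged in selection buffer, then after 15 min with 500 uM ATP at 22 °C. Per cluster, the fluorescence ratio is summed target-cycle over summed buffer-cycle Cy3 intensity, averaged per switch-domain sequence. Only clusters within 100-1000 RFU were kept.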
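Note: ATP exposure 15 min at 22 °C before imaging.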

Sequence | switch fluorescence ratio
GGAATATATA | 0.951 ± 0.013
GGAATATTGG | 1.02 ± 0.019
GGAATCAGGT | 1.014 ± 0.0065
GGAATCCTTT | 0.998 ± 0.0088
GGAATCGGCG | 0.988 ± 0.017
GGAATCTAAC | 1.03 ± 0.048
GGAATGCTTC | 1.06 ± 0.041
GGAATGGATA | 1 ± 0.035
GGAATGGGGT | 0.997 ± 0.024
GGAATGGGTG | 1 ± 0.057
GGAATTATTT | 1.017 ± 0.01
GGAATTCCCG | 0.98 ± 0.054
GGAATTGGTT | 1.01 ± 0.061
GGAATTTAGG | 1 ± 0.015
GGAATTTTGC | 1.03 ± 0.031
GGAATTTTTT | 0.9887 ± 0.0051
GGACACGCAG | 1.02 ± 0.047
GGACACGGTA | 1.12 ± 0.029
GGACACGTTG | 1.05 ± 0.083
GGACAGGGGG | 0.9633 ± 0.0051
GGACATTGAC | 1.08 ± 0.02
GGACCCGGTT | 1.04 ± 0.029
GGACCGGCCG | 1.01 ± 0.076
GGACGATCGG | 0.9765 ± 0.0046
GGACGGAATG | 0.955 ± 0.02
GGACGGTCTT | 1.01 ± 0.043

Sequence | switch fluorescence ratio
GGACGTAGTT | 0.9578 ± 0.0095
GGACTAGTTA | 0.99 ± 0.021
GGACTGGGGA | 1.0045 ± 0.00084
GGACTGGTCG | 1 ± 0.022
GGACTTCGCG | 1.01 ± 0.085
GGACTTGTCT | 1.01 ± 0.053
GGACTTTTTT | 1.03 ± 0.016
GGAGAATTTA | 1.02 ± 0.034
GGAGACGATA | 1.04 ± 0.0032
GGAGACTCAA | 0.988 ± 0.016
GGAGAGGGTC | 1.049 ± 0.0064
GGAGAGTGCT | 0.985 ± 0.015
GGAGAGTGGT | 1.02 ± 0.023
GGAGATATTT | 1 ± 0.011
GGAGATCAGG | 1.03 ± 0.027
GGAGATGGGG | 1.02 ± 0.018
GGAGATTGAA | 0.992 ± 0.019
GGAGATTTGG | 0.979 ± 0.011
GGAGCAGCTA | 1.06 ± 0.028
GGAGCATGAG | 2.47 ± 0.14
GGAGCATGGG | 1.19 ± 0.04
GGAGCGCTGG | 1.05 ± 0.02
GGAGCGGCGG | 1.02 ± 0.069
GGAGCGGTGG | 0.955 ± 0.042
GGAGGAGGGG | 1 ± 0.023
GGAGGCAGGA | 1.015 ± 0.0036

Sequence | switch fluorescence ratio
GGAGGGACTT | 1.39 ± 0.68
GGAGGGAGCG | 1 ± 0.03
GGAGGGGGAA | 1 ± 0.031
GGAGGGGGGC | 1.09 ± 0.16
GGAGGGGTTT | 1.01 ± 0.04
GGAGGTAATT | 0.981 ± 0.027
GGAGGTAGTC | 0.99 ± 0.033
GGAGTAGGTA | 1 ± 0.031
GGAGTATTAG | 0.999 ± 0.072
GGAGTCGGGC | 0.981 ± 0.04
GGAGTGCCAG | 1 ± 0.027
GGAGTGGGAC | 1.12 ± 0.14
GGAGTGGGGG | 0.984 ± 0.036
GGAGTTCGGG | 0.978 ± 0.021
GGAGTTCGTT | 1.09 ± 0.052
GGAGTTGCGG | 0.9089 ± 0.0048
GGAGTTTAGT | 1.008 ± 0.0016
GGAGTTTTTT | 0.968 ± 0.029
GGATAAAAGG | 0.988 ± 0.011
GGATAAACGG | 1.03 ± 0.082
GGATAAAGAC | 1.37 ± 0.41
GGATAATGCT | 0.9597 ± 0.0094
GGATACATGT | 1.003 ± 0.0031
GGATACGGGA | 1.05 ± 0.084
GGATACTCGC | 1.126 ± 0.01
GGATACTGCA | 1.043 ± 0.0054

Sequence | switch fluorescence ratio
GGATAGGGTA | 0.974 ± 0.043
GGATAGGTTT | 1.01 ± 0.034
GGATAGTGTG | 0.997 ± 0.014
GGATATAAAT | 0.972 ± 0.0099
GGATATCAAG | 1.01 ± 0.016
GGATATGTGG | 0.99 ± 0.025
GGATATTCCA | 1.01 ± 0.067
GGATCAAAAG | 1.01 ± 0.018
GGATCATGGT | 1.034 ± 0.007
GGATCTAGAA | 0.9644 ± 0.008
GGATCTGGTG | 1.022 ± 0.0079
GGATGAAACT | 1.012 ± 0.0044
GGATGAGCGA | 1.18 ± 0.19
GGATGAGTTA | 0.983 ± 0.015
GGATGATGCC | 0.986 ± 0.033
GGATGCAGAT | 0.997 ± 0.0094
GGATGCAGGA | 1.04 ± 0.042
GGATGCCAGT | 0.998 ± 0.013
GGATGCTAGA | 0.996 ± 0.024
GGATGCTGGG | 1 ± 0.015
GGATGCTTGT | 1.009 ± 0.0092
GGATGGGCAA | 1.026 ± 0.0026
GGATGGGGAG | 0.971 ± 0.02
GGATGGGTAA | 1.01 ± 0.039
GGATGGGTTT | 1 ± 0.016
GGATGGTAGC | 1.01 ± 0.013

Sequence | switch fluorescence ratio
GGATGGTGAG | 0.972 ± 0.011
GGATGGTGTG | 0.977 ± 0.037
GGATGTATAA | 1.01 ± 0.028
GGATGTGAAA | 0.9851 ± 0.0046
GGATGTTTCG | 1.02 ± 0.02
GGATTAAAAT | 0.997 ± 0.028
GGATTAAATC | 1.001 ± 0.0086
GGATTAATCA | 1.01 ± 0.035
GGATTAATGT | 0.971 ± 0.022
GGATTAATTG | 0.996 ± 0.037
GGATTACCCA | 1.04 ± 0.021
GGATTACCCT | 1.04 ± 0.015
GGATTACGTA | 1.04 ± 0.059
GGATTAGCAG | 1.034 ± 0.0075
GGATTAGGCG | 0.981 ± 0.018
GGATTAGTGC | 1.06 ± 0.039
GGATTATGTA | 0.999 ± 0.026
GGATTATTG | 0.98 ± 0.032
GGATTATTTG | 0.97982 ± 7.7e-05
GGATTCGATT | 0.987 ± 0.03
GGATTCTTGG | 0.977 ± 0.024
GGATTGCGG | 1.008 ± 0.01
GGATTGGACT | 1 ± 0.019
GGATTGGGTT | 1.04 ± 0.069
GGATTGTTTT | 0.996 ± 0.023
GGATTTATTT | 1.06 ± 0.026

Sequence | switch fluorescence ratio
GGATTTGATG | 1 ± 0.031
GGATTTTCAC | 1 ± 0.03
GGATTTTGGA | 1 ± 0.018
GGATTTTGTG | 0.994 ± 0.021
GGATTTTTTG | 0.983 ± 0.021
GGCAAAAATT | 1.01 ± 0.017
GGCAAAACAG | 0.996 ± 0.032
GGCAAATTTT | 1.02 ± 0.036
GGCAATATGG | 1.229 ± 0.011
GGCAATCACC | 1.402 ± 0.0063
GGCAATTATT | 1.02 ± 0.026
GGCACCTACG | 1.53 ± 0.14
GGCACGATGG | 1 ± 0.035
GGCACTATAA | 1.03 ± 0.023
GGCAGAATGA | 1 ± 0.018
GGCAGACTTC | 1.02 ± 0.041
GGCAGAGGCT | 1.03 ± 0.031
GGCAGGGGAT | 1.33 ± 0.6
GGCAGGGGGT | 1.04 ± 0.088
GGCAGGGGTT | 1 ± 0.023
GGCAGGGTTT | 0.99 ± 0.037
GGCAGTAAGA | 1.03 ± 0.024
GGCAGTCGTA | 0.955 ± 0.081
